Where a chain is given by its changes, count along the chain named.
Key:
Test in all cases: cAMP activity assay (pCRE β-galactosidase reporter), transfected HEK293T cells
Assay type in all cases: cell-based
RXFP1 N43A = target: T1, RXFP1 N43A (Homo sapiens, UniProt Q9HBX9, N65A); conditions: construct N43A, ±s.e.m.
T1 construct: transiently transfected human embryonic kidney (HEK) 293T cells expressing full-length RXFP1 and mutants; expressed in transfected cells; host or cells: HEK293T
T1 sequence (Q9HBX9 23-757 N65A limits assumed): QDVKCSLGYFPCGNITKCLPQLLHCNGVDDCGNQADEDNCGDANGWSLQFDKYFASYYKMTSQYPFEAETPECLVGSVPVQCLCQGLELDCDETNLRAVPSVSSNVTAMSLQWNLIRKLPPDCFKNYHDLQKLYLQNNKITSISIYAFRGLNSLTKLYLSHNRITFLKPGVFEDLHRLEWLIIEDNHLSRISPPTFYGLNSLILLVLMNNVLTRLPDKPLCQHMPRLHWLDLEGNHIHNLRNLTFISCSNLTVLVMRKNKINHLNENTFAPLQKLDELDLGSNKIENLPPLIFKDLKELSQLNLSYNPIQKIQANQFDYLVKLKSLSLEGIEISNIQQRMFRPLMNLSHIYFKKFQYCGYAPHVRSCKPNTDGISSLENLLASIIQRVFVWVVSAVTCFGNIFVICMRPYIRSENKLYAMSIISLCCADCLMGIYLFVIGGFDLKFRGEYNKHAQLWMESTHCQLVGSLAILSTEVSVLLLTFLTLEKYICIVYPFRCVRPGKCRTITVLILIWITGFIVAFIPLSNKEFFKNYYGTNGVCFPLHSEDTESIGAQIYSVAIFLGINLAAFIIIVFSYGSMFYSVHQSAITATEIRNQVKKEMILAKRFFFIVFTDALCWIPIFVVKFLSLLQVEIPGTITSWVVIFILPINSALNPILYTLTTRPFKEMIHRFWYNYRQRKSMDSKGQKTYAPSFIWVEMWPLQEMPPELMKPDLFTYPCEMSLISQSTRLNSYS
How it was run: (§1)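 Stim: H2 relaxin in minimal media/1% DMSO; +ctrl 5 μM Forskolin, −ctrl vehicle. Plates frozen −80 °C o/n, lysed 10 min + 10 min in Na2HPO4 pH 8.0 buffers, CPRG substrate, A570. Data = % Forskolin max.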

RXFP1 F54A = target: T2, RXFP1 F54A (Homo sapiens, UniProt Q9HBX9, F76A); conditions: construct F54A, ±s.e.m.
T2 construct: cells expressing full-length RXFP1 and mutants; expressed in transfected cells; host or cells: HEK293T
T2 sequence (Q9HBX9 23-757 F76A limits assumed): T1 sequence (Q9HBX9 23-757 N65A limits assumed) with A43N, F54A
How it was run: as §1

RXFP1 S47L48-AA = target: T3, RXFP1 S47L48-AA (Homo sapiens, UniProt Q9HBX9, L70A/S69A); conditions: construct S47L48-AA, ±s.e.m.
T3 construct: expressed in transfected cells; host or cells: HEK293T
T3 sequence (Q9HBX9 23-757 S69A/L70A limits assumed): T1 sequence (Q9HBX9 23-757 N65A limits assumed) with A43N, S47A, L48A
How it was run: as §1

[1] = percentage of maximum response to 5 μM Forskolin

For “H2 relaxin: two-chain 6-kDa peptide hormone structurally related to insulin; recombinant human gene-2 H2 relaxin provided by Corthera”, the “H2 relaxin pEC50” value (RXFP1 N43A; cAMP reporter) was 9.06±0.48 (4), the “H2 relaxin Emax” value (RXFP1 N43A; [1]) was 120.23±7.81 (4) % and the “H2 relaxin pEC50” value (RXFP1 F54A; cAMP reporter) was 10.23±0.13 (4). The “H2 relaxin Emax” value (RXFP1 F54A; [1]) was 104.89±10.48 (4) %, the “H2 relaxin pEC50” value (RXFP1 S47L48-AA; cAMP reporter) was 11.07±0.17 (3) and the “H2 relaxin Emax” value (RXFP1 S47L48-AA; [1]) was 120.9±10.9 (3) %.

— PMC4837482, “The complex binding mode of the peptide hormone H2 relaxin to its receptor RXFP1” (Nature Communications, 2016)
